From a protein production outcome set (Wang et al. 2014)

Assay: label from the status in PepcDB records

Row | Sequence | protein production
1 | MRVNILMSTYNGEKFVADQIESIQKQTYTDWNLIIRDDGSSDRTCEIVDDFVSKDNRIKLIRAENVGVIKSFHELVTDSNNADFYFFADQDDYWLPEKLSVMLEETKKHDNSKPVMYYTDLKVTDRNLNVTSESMIRGQSDHANTKLVQELTENTVTGGASMINHELAQLWQSTNDIIMHDWYLAIVAAALGELVYIDQPTHLYRQHDSNVLGARTLSKRIKKWIHPNLWFEKYWWLITASQKQAQKLLTENLSLMSEDDKALVSDYVNILKQPKAERRQILDRYNLRKNKNYHTSIFRTLIITKFAYKGKKTNEFLQP | failed
2 | MDRIIEKLDHGWWVVSHEQKLWLPKGELPYGERANFDLVGQRALQIGEWQGEPVWLVQQQRRHDMGSVRQVIDLDVGLFQLAGRGVQLAEFYRSHKYCGYCGHEMYPSKTEWAMLCSHCRERYYPQIAPCIIVAIRRDDSILLAQHTRHRNGVHTVLAGFVEVGETLEQAVAREVMEESGIKVKNLRYVTSQPWPFPQSLMTAFMAEYDSGDIVIDPKELLEANWYRYDDLPLLPPPGTVARRLIEDTVAMCRAEYE | not failed
3 | MMINMNRKITTYQWWIATLAIVSIFLIILDFAAVIDINIPTSKWFWINDGIVVYFAINYFYHLSKSNDKKTFFKNHIYDLLIIIPIGMLFVVLNAFNLSSLVSYLRLLRLIRLAGLMGKLRQIFHTNGLWYVVFFTITFLLVGAEAFAISEHVSLDTAFWWVLSTASTVGYDGIFGKTIPPHSIVGKFVTLVMMLLGIGIVGMLTSSITSYLVRRTNGANTLETHDNIELILKKLDDIEQQNKELTYQNKKLQAEIQTLKGEKNPLMSYIR | failed
4 | MQFFTSDTHFFHKDLLGDSDFAPRPFASVDEMNQTIIDNWNARVAETDTVYHLGDIALYFTKPAIKSDEAVFNVLSQLNGHLELIKGNHDSRALFKYLAAHNFSDHGQPKFAFHDVGALIKYDHRQYYLTHYPMMLGIVNQIINLHGHIHHYAVPVKENINVGVDTPEQRYLTTSVPFGTPFSPTEIEQMVTGKAQEFREKQLEHHHHHH | failed
5 | MASTTRPAPTVGFDLDMTLIDSRPGIRACYVELSARTGTYVDADLAVTRLGPPLAEELANWFPAEEIEAVADLYREIYPAYAIEPTLALPGAREAVTAVRGAGGRAVVVTAKYEPNAKLHLAHLGIEPDAVIGGLWAEQKAVALREHDADVYVGDHVGDVRGARAAGARSVAVASGPCDAGELRAAGADVVLADLTAFPEWLAAYRDGEGDAEGLDAARA | failed
6 | MILPTKAMATQELTVKRKLSGNTLQVQASSPVALGVRIPTVALHMMELFDTTVEQLYSIFTVKELTNKKIIMKWRCGNWPEEHYAMVALNFVPTLGQTELQLKEFLSICKEENMKFCWQKQHFEEIKGSLQLTPLNG | failed
7 | MLPDDVNQADVLADVTAAFYRYEKALTGNDVAVLDELFWHDEKTVRYGAGENLYGIEEIRAFRLARPSAGLDRALRNTVITTYGHDMAVASTEFTRTGSTKIGRQMQTWVKMPEGWRIVAAHVSLMSE | not failed
8 | MQIQQMLENRIEELEMKIAFQEQLLDELNHALVQQQFDIDKMQVQLRYMANKLKDFQSSNIASQSEETPPPHY | not failed
9 | NDDIIVNWVNRTLSEAGKSTSIQSFKDKTISSSLAVVDLIDAIQPGCINYDLVKSGNLTEDDKHNNAKYAVSMARRIGARVYALPEDLVEVKPKMVMTVFACLMGRGMKRV | not failed
10 | ARLEPLLIGGLYPKNLEDRILIKLDQAPPYLLDGLVAVEDRDFYHHFGVSPKSIARAIWVNTSQGQMRQGGSTLTQQLVKNFYLTNERSLSRKLTEAMMAVLLEIHYSKQEILEAYLNEVFVGQDGQRAVHGFGLASQYFFSQPLSELKIHQVAMLVGLVKGPSFYNPRRNP | failed
11 | DMLLVDEMKRGMAQGNASGKHLIILHTKGSHFNYTQRYPRSFAQWKPECVGVDNKCSKAELINSYDNSVTYVDHFIVSVLDQLRDKKAIVFYAADHGESINEREHLHGTPRKMAPPEQFRVPMMVWMSDKYLENPDHAAAFAHLQQQAAMKVPRRHVELYDTIMGCLGYTSPDGGINENNNWCRWKK | failed
12 | MHSPQISPPIAPSTPLLAGWRSAGKAPEAAIRGEAVSLQPLDAPRHGAALFRLFAGDDSHWEHLPYGPFEDEDAFITWLALTVAQSDTALYVVCAKDSDQALGFLGYRQMVQAHGAIEIGHVNFSPALRRTRLATEAVFLLLKTAFELGYRRCEWRCDSRNAASAAAARRFGFQFEGTLRQAMVVKRRNRDTHVFSMLDGEWDALK | not failed
13 | GYDHKKMGITAKGAWVGVQRHFRERDINVQQDSISVIGIGDMAGDVFGNGLLMSDKLQLVAAFNHLHIFIDPNPEPASSFAERERLFNLPRSSWTDYDTSIMSAGGGIFPRSLKSIAITEQMKARFDIKADKLTPTELLHALLKAPVDLLWNGGIGTYVKSSEESHADVGDKANDALRVDGNELRCKVVGEGGNLGMTQLGRVEFGLNGGATNTDFIDNAGGVDCSDHEVNIKILLNEVVQAGDMTEKQRNQLLESMTDEVGHLVLGNNYKQTQALSLAARRAYERIAEYKRLMSDLEARGKLD | not failed
14 | MPQRNDRSRSTPTTSPKNNSWFRMQAGHQSDADIYIYDEIGFWGVTAKQFISDLNALGDITHINLNINSPGGDVFEGIAIFNALKTHGASITVYVDGVAASMASVIAMVGKPVIMPENSFMMIHKPFGFTGGDAEDMRTYADLLDKVEAVLLPAYAQKTGKTTDEIAAMLADETWMSGAECLAHGFADQVTPAVKAMACIQSKRTEEFKKMPESIRNMITPPRNSAPRVQDDGPAASRTPVQAAAPVVDENSIRAQVLAEQKARVNGINDLFAMFGGRYQTLQAQCLADPECSLEQAREKLLNEMGRESTPSNKNTPXHIYAGNGNFVGDGIRQALMARAGFEKTERDNVYNGMTLREYARMSLTERGIGVSSYNPMQMVGAAFTHSTSDFGNILLDVANKAILQGWEDAPETYEQWTRKGQLSDFKIAHRVGMGGFSALRQVREGAEYKYVTTGDKQATIALATYGELFSITRQAIINDDLNMLTDVPMKLGRAAKSTIADLVYAILTSNPKISTDNVSLFDKAKHANVLESAAMDVASLDKARQLMRVQKEGERHLNIRPAFVLVPTAMESVANQVIRSSSVKGADINAGIINPVKDFATVIAEPRLDDNSQTTFYLAASKGSDTIEVAYLNGVDTPYIDQMEGFSVDGVTTKVRIDAGVAPVDHRGLVKCTA | failed
15 | MAAAAATAVGPGAGSAGVAGPGGAGPCATVSVFPGARLLTIGDANGEIQRHAEQQALRLEVRAGPDAAGIALYSHEDVCVFKCSVSRETECSRVGRQSFIITLGCNSVLIQFATPHDFCSFYNILKTCRGHTLERSVFSERTEESSAVQYFQFYGYLSQQQNMMQDYVRTGTYQRAILQNHTDFKDKIVLDVGCGSGILSFFAAQAGARKIYAVEASTMAQHAEVLVKSNNLTDRIVVIPGKVEEVSLPEQVDIIISEPMGYMLFNERMLESYLHAKKYLKPSGNMFPTIGDVHLAPFTDEQLYMEQFTKANFWYQPSFHGVDLSALRGAAVDEYFRQPVVDTFDIRILMAKSVKYTVNFLEAKEGDLHRIEIPFKFHMLHSGLVHGLAFWFDVAFIGSIMTVWLSTAPTEPLTHWYQVRCLFQSPLFAKAGDTLSGTCLLIANKRQSYDISIVAQVDQTGSKSSNLLDLKNPFFRYTGTTPSPPPGSHYTSPSENMWNTGSTYNLSSGVAVAGMPTAYDLSSVIAGGSSVGHNNLIPLANTGIVNHTHSRMGSIMSTGIVQGNRVAGPWAGDLPPGLRTRSSYQWGPGRLRGHAGSSVPMTCPTGSSGAQGGGGSSSAHYAVNNQFTMGGPAISMASPMSIPTNTMHYGS | failed
16 | MPQRRPLRTMKWLIPGLWLASILFAHFRGRVRLSLSRQMLDHSVLLAPVNAFMVLTSRVPTTPYLTTSEIPELKVLDDNWETIRDEALKMAELRRIKAAERHDDIGFNSFFKYGWKRFYLKWYDARHPSAEELCPKTVAILKSLPKVKAAMFAELPPGGKLNPHRDPFSGSLRYHLGLATPNDDRCYIAVDGESYSWRDGESVVFDETYVHEAHNKSEGNRIILFCDVERPLKWRWAEAFNRWFGRVVMSAASSPNDAGDQTGAINKLTHAHWVIDQKRKQFKAWNRTVYKATKWGLIALVAIGFLAL | failed
17 | MMKLMFASDIHGSLPATERVLELFAQSGAQWLVILGDVLNHGPRNALPEGYAPAKVAERLNEVAHKVIAVRGNCDSEVDQMLLHFPITAPWQQVLLEKQRLFLTHGHLFGPENLPALNQNDVLVYGHTHLPVAEQRGEIFHFNPGSVSIPKGGNPASYGMLDNDVLSVIALNDQSIIAQVAINP | not failed
18 | MKTLFSIYLFLSLNPLFLEANEITWSKFLENFKNKNDDDKPKPLTIDKNNEKQQILDKNQQILKRALEKSLKFFFIFGYNYSQATFSTSNQTLTFVANSIGFNTATGLEHFLRNHPKVGFRIFSVYNYFHSVSLSQPQTLMVQNYGGALDFSWIFVDKNIYRFRSYLGIALEQGVLLVDTIKPGAITTIIPRTKKTFFQAPLRFGFIVDFIGYLSLQLGIEMPLVRNVFYTYNNHQERFKPRFNANLSLIVSF | failed
19 | LQVGKVYIFGSGHVARALVPILNYLSFYCVVVDDRPEFLTAQAFPQAEELRVIPLENLAAFIEITADDYGIVITRGHNFDFIVAKQLLETPAKYIGVMGSKHKIASQVRRLKEVGYTMTEIERIFMPIGLDIAAETPEELAISIAGELIQQRYQ | failed
20 | MRTDNINHWDVVAETYSEENNRGRNFHSQIYLAAVNELLGNVKGKCVLDAGCGDGFFSLELAQKGALVTAVDSSEAMLSIAKHKHVHDNLQYYNMDLTRELTFEDKFFDIVVANMLLMDIPEIELLIFEIARVLKKPGTFIFSITHPCFFLSDWEENENNIKTYKKIGNYLEERVEELNFWGKTLHYHRPLSRYMEAVEKAGMYVSSLREPVPPRELIELYPEQEYHCRIPSFVVIMAQMV | failed
21 | MNEQPNNETLIQSSSRDLQIIEDDAFSYEGYQVVRGEFFAHTYEPSFTFNANKVSVNTACIKKLPKTDFVQILVNPDEKKLAVRPCQEDEKDSFRWCSATKKRSPRQITCRIFFAKVITLMGWNSSYRYKLLGKLIRSDNELLFVFDLTTPEIYVRTAKDDGKIKTSRTPTYPAEWQNQFGVPVEEHQSNLQINMFDGYAVFGISENTPPEEPKNPAEPQKEETHYEQSSLFTANPMH | failed
22 | MSVGIDSLDNDHKKLIAILAQLMSAKNEKLGQDDIDVIFERLEGYCLSHFAREEALLAKIDYKQLEAHKLSHQAFIKKIPQLKEQWFAKVTESEAVKDKIILFLQQWLIKHILEEDLDYVPAIHCFQEFSRYEKDKKAKHPWLRFFSIKLSHCLILSHRVLITTLLPVAAVLLLCFFILKDNYQRYDSISKVLGLNSVIEQVNGISHSLQAERGLSTGYTSSNYRSFAKQLRQRRKSTDAKIQYFLWLLEQSANQEIKVSVSRYMTNFQEIVANLSRHRMHLDQKIVGFEETYHAYTQLIGQLLSVSDHLVHIEIGSSHANDISAINAILRYKEFMGQIRAIGMKMAENHQENIYGNVEVSLLIGKQLNTLLIFKNAANSAQKSICGHYCDAFALRQHLESSYLETMQFEDKDVRAARWFKVMSAKVDNLNSVVQRLINEFDGQIYIESQKLKKEGYLIILAMLIFLLVAIFFALVLNYSIISPVRKLTYALNDMSEGQNNIHFNHIDSKDEIGSMQLAFEKLRRKLLQGDVYKATVSQQQKEIKYRKSQQDHFQQLALTDALTGAVNRHHFNEVLDQEIANVNNHGSPLSIMLLDIDHFKSVNDRYGHGVGDEVLVMFYQTCVEAVRSSDVVARIGGEEFVIIMPNTQLVNAQKFAERLRQKIAKLELNIANNQISVTVSIGVSQWQSEYFTNAETFVAHADKSLYQAKNSGRNKVVVAQQ | failed
